Patent publication US20050288223A1

Molecular target: mouse LSR (lipolysis stimulated receptor) (mouse) (UniProt Q99KG5)
Assay: cell-based or functional assay

Sequence of UniProt Q99KG5 (Q99KG5 36-594): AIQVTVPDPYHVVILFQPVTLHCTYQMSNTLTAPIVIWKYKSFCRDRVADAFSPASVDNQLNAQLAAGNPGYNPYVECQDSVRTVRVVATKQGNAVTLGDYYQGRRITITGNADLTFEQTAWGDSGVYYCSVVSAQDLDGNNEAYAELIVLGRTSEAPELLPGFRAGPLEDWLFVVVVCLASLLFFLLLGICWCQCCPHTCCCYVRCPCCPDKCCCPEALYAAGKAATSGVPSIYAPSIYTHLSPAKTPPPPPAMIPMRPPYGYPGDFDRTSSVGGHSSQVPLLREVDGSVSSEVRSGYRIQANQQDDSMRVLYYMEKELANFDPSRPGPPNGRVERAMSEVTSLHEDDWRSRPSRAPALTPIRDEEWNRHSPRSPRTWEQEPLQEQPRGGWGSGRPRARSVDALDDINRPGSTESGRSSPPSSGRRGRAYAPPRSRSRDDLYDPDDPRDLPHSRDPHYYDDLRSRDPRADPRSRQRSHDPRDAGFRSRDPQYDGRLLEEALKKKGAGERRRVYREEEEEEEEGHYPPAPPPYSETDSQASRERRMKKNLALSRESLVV

“125I-mouse leptin (from UniProt P41160 22-167) (ligand)” gave a cell-associated 125I-leptin in BPRCL mouse liver cells after pre-incubation with increasing AdipoQ (AQ) or globular AdipoQ (AQ-GH) of over 30%.
